Experimental data published in patent US20260201048A1 (NANJING BIOHENG BIOTECH, published 2026).
Each block holds one binder with its values, some of them ahead of it.

Legend:
[1] = molecular target: T1, Human SIRPa protein (Acro) (human, UniProt P78324 31-370, limits assumed); assay: flow cytometry; CAR19-α T cells stained with soluble human SIRPa protein
T1 construct: Commercial soluble protein used as the flow cytometry staining reagent; also called SIRPα; signal regulatory protein a
Description: Using a flow cytometry, the expression of anti-CD19 scFv in CAR-T cells was detected with FITC goat anti-human Fab (Thermo Fisher), and the expression of anti-SIRPa scFv was detected with Human SIRPa protein (Acro). It can be seen that all the CARs in the CAR-T cells prepared in this example can be effectively expressed (FIG. 7), and the immunosuppressive molecule in CAR19-α T cells can also be effectively expressed (FIG. 8).

[2] = molecular target: T2, Human IRP60 protein (Kactus) (human, UniProt Q9UGN4 18-178, limits assumed); assay: flow cytometry; CAR19-60 T cells stained with soluble human IRP60 protein
T2 construct: Commercial soluble protein used as the flow cytometry staining reagent; also called CD300a
T2 sequence (looked up): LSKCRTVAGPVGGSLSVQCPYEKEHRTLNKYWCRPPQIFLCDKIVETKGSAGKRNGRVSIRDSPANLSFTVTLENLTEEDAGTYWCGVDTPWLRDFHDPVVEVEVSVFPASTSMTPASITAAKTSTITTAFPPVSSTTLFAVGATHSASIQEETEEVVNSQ
Description: Using a flow cytometry, the expression of anti-CD 19 scFv in CAR-T cells was detected with FITC goat anti-human Fab (Thermo Fisher), and the expression of anti-IRP60 scFv was detected with Human IRP60 protein (Kactus). It can be seen that all the CARs in the CAR-T cells prepared in this example can be effectively expressed (FIG. 12), and the immunosuppressive molecule in CAR19-60 T cells can also be effectively expressed (FIG. 13).

T1 sequence (P78324 31-370 limits assumed): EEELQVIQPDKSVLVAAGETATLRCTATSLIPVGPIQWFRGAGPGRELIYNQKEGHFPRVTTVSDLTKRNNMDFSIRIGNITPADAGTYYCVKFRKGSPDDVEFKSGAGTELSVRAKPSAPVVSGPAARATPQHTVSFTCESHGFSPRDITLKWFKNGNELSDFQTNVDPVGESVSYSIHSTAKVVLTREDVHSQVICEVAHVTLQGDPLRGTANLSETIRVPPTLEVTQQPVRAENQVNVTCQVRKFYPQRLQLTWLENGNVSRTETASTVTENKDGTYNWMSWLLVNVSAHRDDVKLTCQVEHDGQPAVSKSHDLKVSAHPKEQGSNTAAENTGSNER

binding result [1]: binds
B1: immunosuppressive molecule targeting SIRPa (anti-SIRPa scFv, IgG4 hinge region, CD28 transmembrane region, CD28 co-stimulatory domain), expressed on CAR19-α T … (scFv)
chain: EVQLVESGGGLVQPGGSLRLSCAASGFNISYYFIHWVRQAPGKGLEWVASVYSSFGYTYYADSVKGRFTISADTSKNTAYLQMNSLRAEDTAVYYCARFTFPGLFTGFFGAYLGSLDYWGQGTLVTVSSGGGSGGGSGGGSDIQMTQSPSSLSASVGDRVTITCRASQSVSSAVAWYQQKPGKAPKLLIYSASSLYSGVPSRFSGSRSGTDFTLTISSLQPEDFATYYCQQAVNWVGALVTFGQGTKVEIKRESKYGPPCPPCPFWVLVVVGGVLACYSLLVTVAFIIFWVRSKRSRLLHSDYMNMTPRRPGPTRKHYQPYAPPRDFAAYRS
notes: Membrane-anchored scFv on B2M-knockout T cells that also express a CD19 CAR; also called anti-SIRPa antibody

binding result [2]: binds
B2: immunosuppressive molecule targeting IRP60 (anti-IRP60 scFv, IgG4 hinge region, CD28 transmembrane region, CD28 co-stimulatory domain), expressed on CAR19-60 T … (scFv)
chain: EVQLQQSGAELVKPGASVKLSCKASGYTFTSYWMQWVKQRPGQGLEWIGEIDPSDSYTNYNQKFKGKATLTVDTSSSTTYMQLSSLTSEDSAVYYCARWGMAYGTSSYWYFDVWGTGTTVTVSSAGGGSGGGSGGGSDIQMTQTTSSLSASLGDRVTISCRASQDISNYLNWYQQKPDGTVKLLIYYTSRLHSGVPSRFSGSGSGTDYSLTISNLEQEDIATYFCQQGNTLPWTFGGGTKLEIKESKYGPPCPPCPFWVLVVVGGVLACYSLLVTVAFIIFWVRSKRSRLLHSDYMNMTPRRPGPTRKHYQPYAPPRDFAAYRS
notes: Membrane-anchored scFv on B2M-knockout T cells that also express a CD19 CAR; also called anti-IRP60 antibody
